Laboratory results published in patent US20250263490A1 (VIB VZW, published 2025).
Residue numbers refer to the chain shown, from its start.

B1: anti-CI-M6PR VHH8 (VHH)
VHH: QVQLQESGGGLVQAGGSLRLSCEASGRTFNTYNWGWFRQAPGKEREFVAAIRWSSSKTSYADSVKGRFTISRDNAKNTIYLQMNSLKPEDTAVYYCAASIVDFTTNPSHFGSWGQGTQVTVSS
notes: His6-tagged (Pichia pastoris)
B2: anti-CI-M6PR VHH5 (VHH)
VHH: QVQLQESGGGLVQAGGSLKLSCAAAGRTFSRLAMGWFRQAPGKEREFVAAISENGDSIHYSDSVKGRFAVSRDNAKNTVYLQMNSLKPEDTAIYYCAADRAAYYCSGSGCYPSRAPAAASYDYWGQGTQVTVSS
notes: His6-tagged; made in Pichia pastoris, later also in E. coli WK6
B3: anti-CI-M6PR VHH 1H11 (VHH)
VHH: QVQLQESGGGLVQPGGSLRLSCAASGIIFSDNRMDWYRQAPGKQREWVATLASYGWKTYADSVKDRFTISRDNAKNTVNLYMNSLQPEDTAVYYCNSGQYWGQGTQVTVSS
notes: made in E. coli WK6, His-tag purified

Legend:
Assay in all cases: ELISA on coated antigen (100 ng), anti-VHH-HRP, A450
E433R = target: T1, E433R
T1 construct: also called human CI-M6PR Dom1-3His6 E433R
T1 chain: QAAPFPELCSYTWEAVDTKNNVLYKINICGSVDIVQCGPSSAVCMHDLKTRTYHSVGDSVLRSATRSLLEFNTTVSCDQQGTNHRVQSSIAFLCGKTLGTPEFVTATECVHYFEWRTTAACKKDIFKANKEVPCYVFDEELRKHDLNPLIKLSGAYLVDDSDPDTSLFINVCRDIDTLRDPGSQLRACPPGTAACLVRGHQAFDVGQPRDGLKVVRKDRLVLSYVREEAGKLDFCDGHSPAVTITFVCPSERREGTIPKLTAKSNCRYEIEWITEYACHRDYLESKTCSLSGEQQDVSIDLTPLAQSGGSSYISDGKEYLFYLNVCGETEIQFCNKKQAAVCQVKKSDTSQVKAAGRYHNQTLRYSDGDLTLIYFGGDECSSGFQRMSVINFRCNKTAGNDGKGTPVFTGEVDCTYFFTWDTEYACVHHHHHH
Description: (§1) To determine the effect of site-directed mutations, an ELISA was performed. To this end, 100 ng of each successfully purified mutant was coated per well on Nunc Maxisorp plates in 50 mM MES, 150 mM NaCl, pH 6.5 buffer overnight at 4° C. […] Coating-only controls were included for background correction. […] Reactions were stopped after five minutes using a 2N H₂SO₄ solution and plates were read at 450 nm, with a 655 nm background correction. Data were analyzed using the GraphPad Prism 9 software.

D409F = target: T2, D409F
T2 construct: also called human CI-M6PR Dom1-3His6 D409F
T2 chain: T1 chain with D369F, R393E
Description: as §1

L197D = target: T3, L197D
T3 construct: also called human CI-M6PR Dom1-3His6 L197D
T3 chain: T1 chain with L157D, R393E
Description: as §1

D87L = target: T4, D87L
T4 construct: also called human CI-M6PR Dom1-3His6 D87L
T4 chain: T1 chain with D47L, R393E
Description: as §1

M85E = target: T5, M85E
T5 construct: also called human CI-M6PR Dom1-3His6 M85E
T5 chain: T1 chain with M45E, R393E
Description: as §1

EC50 (read off the curve) (E433R) | EC50 (read off the curve) (D409F) | EC50 (read off the curve) (L197D) | EC50 (read off the curve) (D87L) | EC50 (read off the curve) (M85E) | Binder
~3 nM | ~5 nM | ~20 nM | ~4 nM | ~3 nM | B1
~3 nM | ~4 nM | ~4 nM | ~2 nM | ~2 nM | B2
~0.4 nM | ~0.4 nM | ~0.4 nM | – | – | B3
